Data on six molecules can be found in PMC8047080, “Engineering Cofactor Specificity of a Thermostable Phosphite Dehydrogenase for a Highly Efficient and Robust NADPH Regeneration System” (Frontiers in Bioengineering and Biotechnology, 2021).

Series [1] deals with T1, shikimate dehydrogenase (SDH) (Thermus thermophilus, UniProt Q5SJF8).
T1 construct: gene aroE; pET-11a in E. coli Rosetta 2 (DE3) pLysS; heat treatment at 80°C and HiTrap SP purification
T1 sequence (Q5SJF8 1-263): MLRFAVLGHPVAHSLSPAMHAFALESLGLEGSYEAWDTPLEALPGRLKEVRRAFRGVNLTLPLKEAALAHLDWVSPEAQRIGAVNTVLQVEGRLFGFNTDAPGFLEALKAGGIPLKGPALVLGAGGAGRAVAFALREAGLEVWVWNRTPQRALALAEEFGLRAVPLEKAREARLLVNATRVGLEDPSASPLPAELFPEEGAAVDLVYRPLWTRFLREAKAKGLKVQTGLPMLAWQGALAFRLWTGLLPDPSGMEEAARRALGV
In words: HPLC ([…] nm) of shikimic acid formed in coupled reaction with RsPtxD. In kind it is biochemical. The following applies: NADPH regenerated from 0.1 mM NADP by RsPtxD HARRA mutant; 20 mM phosphite; 100 mM HEPES pH 8.0; 45°C.

The test system of series [2] is NC(=O)c1ccc[n+]([C@@H]2O[C@H](COP(=O)(O)OP(=O)(O)OC[C@H]3O[C@@H](n4cnc5c(N)ncnc54)[C@H](OP(=O)(O)O)[C@@H]3O)[C@@H](O)[C@H]2O)c1. In words: purified protein. The following applies: 1 mM phosphite, 100 mM MOPS pH 7.3.
The test system of series [3] is NC(=O)c1ccc[n+]([C@@H]2O[C@H](COP(=O)(O)OP(=O)(O)OC[C@H]3O[C@@H](n4cnc5c(N)ncnc54)[C@H](O)[C@@H]3O)[C@@H](O)[C@H]2O)c1. In words: purified protein. The following applies: 1 mM phosphite, 100 mM MOPS pH 7.3.
In series [4] the test system is O=[PH](O)O. In words: purified protein. The following applies: 1 mM NADP as co-substrate, 100 mM MOPS pH 7.3.
Substrate in series [5]: NC(=O)c1ccc[n+]([C@@H]2O[C@H](COP(=O)(O)OP(=O)(O)OC[C@H]3O[C@@H](n4cnc5c(N)ncnc54)[C@H](OP(=O)(O)O)[C@@H]3O)[C@@H](O)[C@H]2O)c1
In words: purified protein. The following applies: 1 mM phosphite, 100 mM MOPS pH 7.3. The source holds these as a separate data set.

Substrate in series [6]: O=[PH](O)O
The series is described as follows: purified protein. The following applies: 1 mM NAD as co-substrate, 100 mM MOPS pH 7.3.

Substrate in series [7]: NC(=O)c1ccc[n+]([C@@H]2O[C@H](COP(=O)(O)OP(=O)(O)OC[C@H]3O[C@@H](n4cnc5c(N)ncnc54)[C@H](O)[C@@H]3O)[C@@H](O)[C@H]2O)c1
In words: purified protein. The following applies: 1 mM phosphite, 100 mM MOPS pH 7.3. This is another data set of the same source.

As to `NC(=O)C1=CN([C@@H]2O[C@H](COP(=O)(O)OP(=O)(O)OC[C@H]3O[C@@H](n4cnc5c(N)ncnc54)[C@H](OP(=O)(O)O)[C@@H]3O)[C@@H](O)[C@H]2O)C=CC1` [NADPH], in series [1], the “HPLC (230 nm) of shikimic acid formed in coupled reaction with RsPtxD” value is “SDH catalyzes the reduction of 3-DHS to SA”.

As to “RsPtxD (Ralstonia sp. 4506; C174H/D175A/P176R)”, in series [2], the Km is 24 ± 5.2 µM, the kcat stood at 118 ± 6.8 min^–1 and the specificity constant (kcat/Km) came to 81700 M⁻¹ s⁻¹. Also, in series [3], the Km came to 154 ± 14.7 µM, the kcat was 155 ± 2.3 min^–1 and the kcat/Km came to 16700 M⁻¹ s⁻¹.

Turning to “RsPtxD (Ralstonia sp. 4506; D175A/P176R)”, in series [2], the Km turned out to be 56 ± 5.1 µM, the kcat came to 91.1 ± 3.9 min^–1 and the kcat/Km stood at 26700 M⁻¹ s⁻¹. Moreover, in series [3], the Km was 412 ± 21.5 µM, the kcat was 115 ± 13.0 min^–1 and the kcat/Km worked out at 5000 M⁻¹ s⁻¹.

Turning to “RsPtxD (Ralstonia sp. 4506; C174H/D175A/I177R/P176R/P178A)”, the results for the Km in series [2], in series [3] and in series [4] were 2.9 ± 0.5 µM, 112 ± 1.3 µM and 38 ± 8.5 µM, respectively. Besides, the kcat is listed as 128 ± 16.6 min^–1 in series [2] and 148 ± 14.8 min^–1 in series [3]. For the same molecule, the specificity constant (kcat/Km) in series [2] was 735000 M⁻¹ s⁻¹; in series [3], 21700 M⁻¹ s⁻¹.

As for “RsPtxD (Ralstonia sp. 4506; C174H/D175A/I177K/P176R/P178A)”, in series [2], the Km is 4.4 ± 0.9 µM, the kcat is reported as 129 ± 12.1 min^–1 and the kcat/Km is 493000 M⁻¹ s⁻¹. In series [3], the Km turned out to be 130 ± 10.6 µM, the kcat came out at 154 ± 7.5 min^–1 and the kcat/Km was determined as 20000 M⁻¹ s⁻¹. Further, the Michaelis constant (Km) in series [4] amounted to 27 ± 9.0 µM.

B1: RsPtxD (Ralstonia sp. 4506) (protein)
chain: MKPKVVLTHWVHPEIIELLSASADVIPNTTRETLPRSEVIARAKDADALMAFMPDSIDSAFLEECPKLRVIGAALKGYDNFDVNACTRHGVWLTIVPDLLTIPTAELTIGLLLGLTRHMLEGDRQIRSGHFQGWRPTLYGSGLTGKTLGIIGMGAVGRAIAQRLAGFEMNLLYCDPIPLNAEQEKAWHVQRVTLDELLEKCDYVVPMVPMAAETLHLIDATALAKMKTGSYLINACRGSVVDENAVIAALASGKLAGYAADVFEMEEWIRADRPQAIPKALLDNTAQTFFTPHLGSAVKEVRLEIERQAAMNIIQALAGEKPMGAINQPYPGVKAA
With B1, in series [5], the Michaelis constant (Km) was 418 ± 38.7 µM and the kcat is on record as 16.0 ± 6.3 min^–1. Moreover, the Km in series [6] was determined as 37.0 ± 7.0 µM. In series [7], the Km came out at 7.7 ± 2.3 µM, the kcat was found to be 127 ± 16.8 min^–1 and the catalytic efficiency (kcat/Km) came to 277000 M⁻¹ s⁻¹.
